Experimental data published in the nanobody polyreactivity screen of Harvey et al. (2022).

Test: yeast display, Sf9 membrane polyspecificity reagent, FACS + sequencing; frameworks hold sequencing errors
Procedure, shortened: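 Polyreactivity labels are assigned by the sorting gate from which each nanobody was recovered. The gates were low and high (top ~1%), set on anti-HA fluorescence for expression and streptavidin fluorescence for reagent binding. Before sorting, galactose-induced (36–48 hours) yeast display cells were stained for 1 hour at 4 °C with 10% biotinylated, detergent-solubilized Sf9 membrane reagent.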

Sequence	polyreactivity (PSR sort gate)
QVQLVESGGGLVQAGGSLRLSCAASGGIFGYYAMGWYRQAPGKEREFVAAITARGGRTYYADSVKGRFTISRDNAKNTVYLQMNSLKPEDTAVYYCAAYSPVWGRYYHRVERDYWGQGTQVTVSS	high polyreactivity
QVQLVESGGGLVQAGGSLRLSCAASGGIFIANAMGWYRQAPGKERELVAAISSSGGSTYYADSVKGRFTISRDNAKNTVYLQMNSLKPEDTAVYYCNKLLTRSYRTYGRYGYWGQGTQVTVSS	high polyreactivity
QVQLVESGGGLVQAGGSLRLSCAASGGIFKKYAMGWYRQAPGKERELVAVITSGGRTNYADSVKGRFTISRDNAKNTVYLLMNSLKPEDTAVYYCAAVYVTGSYRYGYWGQGSQVTVSS	high polyreactivity
QVQLVESGGGLVQAGGSLRLSCAASGGIFLGNAMAWYRQATGKETELVASITRGGDTSYADSVKARFTFSRDNAKNTVYLQMNSLKPEDTAVYYCNADYYSVVEYDYWGQGTQVTVSS	low polyreactivity
QVQLVESGGGLVQAGGSLRLSCAASGGIFLPNAMGWYRQAPGKERELVAAISTGGSTNYADSVKGRFTISRDNAKNTVYLQMNSLKPEDTAVYYCAATPYNYVGFSRGGDYWGQGTQVTVSS	low polyreactivity
QVQLVESGGGLVQAGGSLRLSCAASGGIFLYNSMGWYRQAPGKERELVADISSSGITYYADSVKGRFTISRDNAKNTVYLQMNSLNPEDTAVYYCAADSTTRPGLRVYDDYDYWGQGTQVTVSS	low polyreactivity
QVQLVESGGGLVQAGGSLRLSCAASGGIFPDYAMGSYRQAPGKERELVAVISDSGGSTYYADSVKGRFTISRDNAKNTVYLQMNSLKPEDTAVYYCAAETEWYYGYYEYWGQGTQVTVSS	high polyreactivity
QVQLVESGGGLVQAGGSLRLSCAASGGIFPDYAMGWYRQAPGKERELVAVISDSGGSTYYADSVKGRFTISRDNAKNTVYLQMNSLKPEDTAVYYCSAETEWYYGYYEYWGQGTQVTVSS	high polyreactivity
QVQLVESGGGLVQAGGSLRLSCAASGGIFRNYAMGWYRQAPGKERELVARISSAGSTNYADSVKGRFTNSRDNAKNTVYLLMNSLKPEDTAVYYCAKGWRSWAEEGHDYWGQGTQVTVSS	low polyreactivity
QVQLVESGGGLVQAGGSLRLSCAASGGIFRPYAMGWYRQAPGKERELVAAITYNGGSTYYADSVKGRFTISRDNAKNTVYLQMNSLKPEDTAVYYCAAVSYSGPYAYEYWGQGTQVTVSS	high polyreactivity
QVQLVESGGGLVQAGGSLRLSCAASGGIFRVYAMGWYRQAPGNERELVAAINGRGTSTYYADSVKGRFTISRDNAKNTVYLQMNSLKPEDTAVYYCAASGQYHYDYWGQGTQVTVSS	high polyreactivity
QVQLVESGGGLVQAGGSLRLSCAASGGIFRYYAMGWYRQAPAKERELVAAISSGGRTYYADSVKGRFTISRDNAKTTVYLQMNSLKPEDTAVYYCNADRYWGYDYWGQGTQVTVSS	high polyreactivity
QVQLVESGGGLVQAGGSLRLSCAASGGIFSKNVMGWYRQAPGKERELVAAISRGGTTSYADSVKGRFTISRDNAKNTVYLQMNSLKPEDTAVYFCAAKYWWYPYFTVDYDYWGQGTQVTVSS	high polyreactivity
QVQLVESGGGLVQAGGSLRLSCAASGGIFSVYAMGWYRQAPGKEREFVAAISKSGGRTYYADSVKGRFTISRDNAKNTVYLQMNSLKPEDTAVYYWNVVRRSPGDYSYYYWGQGTQVTVSS	low polyreactivity
QVQLVESGGGLVQAGGSLRLSCAASGGIFSYAMGWYRQAPGKERELVAAISSGGSTYYADSVKGRFTISRDNAKNTVYLQMNSLKPEDTAVYYCAADGNGVDYDYWGQGTQVTVSS	low polyreactivity
QVQLVESGGGLVQAGGSLRLSCAASGGIFTFNDMGWYRQAPGKERELVAAISRRGGSTYYADSVKGRFTISRDNAKNTVFLQMNSLKPEDTAVYYCAASSRRQRSEPYYYWGQGTQVTVSS	high polyreactivity
QVQLVESGGGLVQAGGSLRLSCAASGGIFTKNAMGWYRQAPGKERELVAGISRTGGNTYYADSVKGRFTISRDNAKYTVYLQMNSLIPEDTAVYYCNALYGGPHRLRYDYWGQGTQVTVSS	low polyreactivity
QVQLVESGGGLVQAGGSLRLSCAASGGIFVANAMGWYRQAPGKERELVAAISRSGGSTYYADSVKGRFTISRDNAKNTVYLQMKSLKPEDTAVYYCAAKSRRQFTVGLTSDYRGQGTQVTVSS	high polyreactivity
QVQLVESGGGLVQAGGSLRLSCAASGGIFVGNAMGWYRQAPGKERELVAAITYRGGRTYYADSVKGRFTISRDNAKNTVYLQMNSLKPEDTAVYYCNAYKQGGRSKYNYWGQGTQVTVSS	high polyreactivity
QVQLVESGGGLVQAGGSLRLSCAASGGIFVGYAMGWYRQAPGKERELVAAISSGGNTYYADSVKGRFTISRDNAKNTVYLQMNSLKPEDTAVYYCAAVRQYQGYRYDYWGQGTQVTVSS	high polyreactivity
QVQLVESGGGLVQAGGSLRLSCAASGGIFVGYAMGWYRQAPGKERELVASIDGSDGSTFYADSVKGRFTISRDNAKNTVYLQMNSLKPVDTAVYYCNARATLLSPANTIRGYDYWGQGTQVTVSS	low polyreactivity
QVQLVESGGGLVQAGGSLRLSCAASGGIFVLYAMGWYRQAPGKERELVAAIRYGGSSTYYADSVKGRFTISRDYAKNTVYLQMNSLKPEDTAVYYCAAEPYSWDTWVDYDYWGQGTQVTVSS	low polyreactivity

Sequence	polyreactivity (PSR sort gate)
QVQLVESGGGLVQAGGSLRLSCAASGGIFVQNAMGWYRQAPGKERELVAAITNGGSTYYADSVKGRFTISRDNAKNTVYLQMNSLKPEDTAVYYCAVDEYFIQDMDYWGQGTQVTVSS	low polyreactivity
QVQLVESGGGLVQAGGSLRLSCAASGGIFVRYAMGWYRQAPGKERELVAAISYSGGSTYYADSVKGRFTISRDNAKNTVYLQLNSLKPEDTAVYYCAAYVTGRYDWGQVTQVTVSS	high polyreactivity
QVQLVESGGGLVQAGGSLRLSCAASGGIFVTYAMGWYRKAPGKERELLAAISANGGDTYYADSVKGRFTISRDNAKTSVYLQMNRLKPEDTAVYYCAADGFLPILHPVPWSYYYPFGYWGQGTHVTVSS	low polyreactivity
QVQLVESGGGLVQAGGSLRLSCAASGGIFVTYAMGWYRQAPGKERELVAAITSGGTTYYADSVKGRFTISRDNAKNTVYLQMNSLKPEDTAVYYCAADPTNSYLEYDYWGQGTQVTVSS	low polyreactivity
QVQLVESGGGLVQAGGSLRLSCAASGGIFWAYAMGWYRQAPGKERELVAAITTRGTSTYYADSVKGRFTISCDNAKNTVYLQMNSLKPEDTAVYYCAAALYGYYSTLTTYWGQGTQVTVSS	high polyreactivity
QVQLVESGGGLVQAGGSLRLSCAASGGIFWVYAMGWYRQAPGKERELVAAISNSDTSTSYADSVKGRFTISRDNAKNTVYLQMNSLKPEDTAVYYCNADSPSLSGDYWGQGTQVTVSS	low polyreactivity
QVQLVESGGGLVQAGGSLRLSCAASGGIFWYYTMGWYRQAPGKERELVATLSSGGRTYYADSVKGRFTMSRDNAKNTVYLQMNSLKPEDTAVYYCAAVGWYHDYYWGQGTQVTVSS	high polyreactivity
QVQLVESGGGLVQAGGSLRLSCAASGGIFWYYTRVWYRQAPGKERELVATISSGGRTYYADSVKGRFTISRDNAKNTVYLQMNSLKPEHTAVYYCAAVGWYHDYYWGQGTQVTVSS	high polyreactivity
QVQLVESGGGLVQAGGSLRLSCAASGGIFYFNAMGWYRQAPGKERELVASITWSGGNTYYADSVKGRFTISRDNAKNTVYLQMNSLKPEDTAVYYCAADTQEYRPTYDYWGQGTQVTVSS	low polyreactivity
QVQLVESGGGLVQAGGSLRLSCAASGGIFYFYAMGWYRQAPGKERELVAVITWSGGRTRYADSVKGRFTISRDNAKNTVYLQMNSLKPEDTAVYYCATYGVNPPGVEEYNYWGQGTQVTVSS	high polyreactivity
QVQLVESGGGLVQAGGSLRLSCAASGGIFYIYAMGWYRQAPGQERELVAAISWRGTSTYYADSVKGRFTISRDNAKNTVYLQMNRLKPEDTAVYYCAADFSYTSYATRYQGDYWGQGTQVTVSS	low polyreactivity
QVQLVESGGGLVQAGGSLRLSCAASGGIFYLYAMGWYRQAPGKERELVAAISWSGTSTYYADSVKGRFTISRDNAKNTVYLQMNSLKPEDTAVYYCAADYERYYAKAINYDYWGQGTQVTVSS	low polyreactivity
QVQLVESGGGLVQAGGSLRLSCAASGGIFYPYAMGGYRQAPGKERELVASIDVSDGSTYYADSVKGRFTISRDNAKNTVYLQMNSLKPEDTAVYYCAADRYYKAIDFEGDYWGQGTQVTVSS	low polyreactivity
QVQLVESGGGLVQAGGSLRLSCAASGGIFYRYAMGWYRQAPGKERELVAAITRSGANTYYADSVKGRFTISRDNAKNTVYLLMNSLKPEDTAVYYCNARSYLYYSGQYDYWGQGTQVTVSS	high polyreactivity
QVQLVESGGGLVQAGGSLRLSCAASGGIFYRYAMGWYRQAPGKERELVAAITSSGGSTYYADSVKGRFTISRDNAKNTVYLQMNSLKPEDTAVYYCAADYGYYGAGSYFDRGDYWGQGTQVTVSS	high polyreactivity
QVQLVESGGGLVQAGGSLRLSCAASGGIFYRYVMRWYRQAPGKERELVAAITFSGGSTYYSDSVKGRFTISRDNAKNTVYLQMNSLKPEDTAVYYCAADTYYNPYWLDYWGQGTQVTVSS	low polyreactivity
QVQLVESGGGLVQAGGSLRLSCAASGGIFYSYAMGWYRQAPGKERELVAAISGRGGSTYYADSVKGRFTISRDNAKNSVNLQMNSLKPEDTAVYYCNALGSQRYDYWGQGTQVTVSS	high polyreactivity
QVQLVESGGGLVQAGGSLRLSCAASGGIFYSYAMGWYRQAPGKERELVAALSRGSRTYYADSVKGRFTISRDNAKNTVYLQMNSLKPEDTAVYYCAAYIVGSYRDGYWGQGTQVSVSS	high polyreactivity
QVQLVESGGGLVQAGGSLRLSCAASGGIFYTYALGWYRQAPGKERELVAGINWSGSSTYYADSVKGRFTISRDNAKNTVYLQMNSLKPEDTAVYYCAARSYSYSTGDYWGQGTQVTVSS	low polyreactivity
QVQLVESGGGLVQAGGSLRLSCAASGGIFYTYAMGWYRQAPGKERELVAAISSSGGSTYYADSVKGRFTISRDNAKNTVYLQMNSLKPEDTAVYYCAKDSSTGAGARRRYGYWGQGTQVTVSS	low polyreactivity
QVQLVESGGGLVQAGGSLRLSCAASGGIFYVNAMGWYRQAPGKERELVAAITSDGVSTYYADSVKGRFTISRDNAKNTVYLQMNSLKPEDTAVYYCAARFQYYRKYDYWGQGTQVTVSS	low polyreactivity
